Source: paper PMC6448830 (PLoS Pathogens, 2019)

T1: human 2B4-Fc fusion protein (human, UniProt Q9BZW8 22-229)
T1 construct: also called h2B4-Fc; h2B4
T1 sequence: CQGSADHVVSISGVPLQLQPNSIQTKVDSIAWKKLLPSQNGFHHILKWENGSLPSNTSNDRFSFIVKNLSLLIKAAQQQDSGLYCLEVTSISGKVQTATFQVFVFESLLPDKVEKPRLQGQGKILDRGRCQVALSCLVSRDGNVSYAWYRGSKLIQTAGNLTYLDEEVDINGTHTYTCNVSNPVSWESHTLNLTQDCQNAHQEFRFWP

B1: A43-Fc fusion protein (Fc fusion)
chain: VNIVNALVGGNITLNISESLPENVREITWFCTYDQKIADWDVKRLKYFDNKFKGRVRLDSQSGALYLSRVQKEDANIYIMRVLKDTMFEQDWKIRLQVFDEVDTPNITLVNTTLISDTCYVNFSCSHHDSLCYTSNENCTWYHFSQNITKTPPWNHSASSNSCYTCEFKNPVHRKNITMCISGCGQT
modifications: Wild-type viral ectodomain. The human IgG1 Fc carrier (dimerising) and CD33 leader are left out. The C-terminal limit follows from the printed membrane-proximal region 214-225, so Ig2 ends at …
B2: A. trivirgatus CD48-Fc fusion protein (Fc fusion)
chain: TSIQGNSVDVINAISGGNVTLNISESLPENVREITWFCTYHQKIADWDVKRLKYFDNKFKGRVRLDYQSGALYISKIQKEDANIYIMRVLKETMYEQEWKIRLQVFDPVPKPDIKIEKTAKVEDDCYLKLSCVIPDESVNYTWYGDKEPFPKEFQSGVLETTLKSQDYSRCYTCQVSNPVSSKNDTVCFS
modifications: biotin (biotinylated host CD48-Fc in the blocking ELISA)

Experiments:
[1] = biological target: T2, A. trivirgatus 2B4-Fc fusion protein (Aotus trivirgatus); test: SPR; conditions: both partners purified
T2 construct: also called host 2B4-Fc; aoCD244-Fc

[2] = biological target: T1, human 2B4-Fc fusion protein; test: SPR; conditions: both partners purified

Row | Binder | Kd [1] [nM] | fold slower dissociation than host CD48 [1] [fold] | koff [1] [s⁻¹] | kon [1] [M⁻¹ s⁻¹] | Kd [2] [nM] | fold higher affinity than hCD48 [2] [fold] | fold slower dissociation than hCD48 [2] [fold] | koff [2] [s⁻¹] | kon [2] [M⁻¹ s⁻¹]
1 | B1 | 1.3 | 2.6 | 0.000188 | 116000 | 3.6 | 6 | 55 | 0.000405 | 169000
2 | B2 | 3.3 | – | – | – | – | – | – | – | –
